Data: patent US20250277018A1 (published 2025)

What was measured:
Experiment in all cases: ELISA
4A01v5 = target: 4A01v5
4A01v8 = target: 4A01v8
4A01v6 = target: 4A01v6
4A01v4 = target: 4A01v4
4A01v9 = target: 4A01v9
4A01v3-3 = target: 4A01v3-3
4A01v3 = target: 4A01v3
4A01v3-1 = target: 4A01v3-1
4A01v1 = target: 4A01v1
4A01v3-5 = target: 4A01v3-5
4A01v3-8 = target: 4A01v3-8
4A01v3-4 = target: 4A01v3-4
4A01v3-7 = target: 4A01v3-7

B1: rat (other)
chain: EAHKSEIAHRFKDLGEQHFKGLVLIAFSQYLQKCPYEEHIKLVQEVTDFAKTCVADENAENCDKSIHTLFGDKLCAIPKLRDNYGELADCCAKQEPERNECFLQHKDDNPNLPPFQRPEAEAMCTSFQENPTSFLGHYLHEVARRHPYFYAPELLYYAEKYNEVLTQCCTESDKAACLTPKLDAVKEKALVAAVRQRMKCSSMQRFGERAFKAWAVARMSQRFPNAEFAEITKLATDVTKINKECCHGDLLECADDRAELAKYMCENQATISSKLQACCDKPVLQKSQCLAEIEHDNIPADLPSIAADFVEDKEVCKNYAEAKDVFLGTFLYEYSRRHPDYSVSLLLRLAKKYEATLEKCCAEGDPPACYGTVLAEFQPLVEEPKNLVKTNCELYEKLGEYGFQNAVLVRYTQKAPQVSTPTLVEAARNLGRVGTKCCTLPEAQRLPCVEDYLSAILNRLCVLHEKTPVSEKVTKCCSGSLVERRPCFSALTVDETYVPKEFKAETFTFHSDICTLPDKEKQIKKQTALAELVKHKPKATEDQLKTVMGDFAQFVDKCCKAADKDNCFATEGPNLVARSKEALA
Q: With B1 as the binder, how does the Kd (4A01v5) read?
A: 0.26 nM

Q: What about the Kd (4A01v8) of the same binder?
A: 0.328 nM

Q: And the Kd (4A01v6)?
A: 0.273 nM

Q: And the Kd (4A01v4)?
A: 0.32 nM

Q: What about the Kd (4A01v9) of the same binder?
A: 0.144 nM

Q: What about the Kd (4A01v3-3) of the same binder?
A: 0.152 nM

Q: What about the Kd (4A01v3) of the same binder?
A: 0.162 nM

Q: What about the Kd (4A01v3-1) of the same binder?
A: 0.13 nM

Q: And the Kd (4A01v1)?
A: 0.184 nM

Q: What about the Kd (4A01v3-5) of the same binder?
A: 0.162 nM

Q: And the Kd (4A01v3-8)?
A: 0.169 nM

Q: What about the Kd (4A01v3-4) of the same binder?
A: 0.252 nM

Q: What about the Kd (4A01v3-7) of the same binder?
A: 0.123 nM
